# Measured values reported in patent US11738082B2, “High concentration protein formulations with reduced viscosity” (Bhami's Research Laboratory, Pvt. Ltd., priority 2017, dated 2023).
# Where a name gives a salt, the structure may show the parent alone.
# Legend:
# [1] = tested on: Human Gamma Globulin (HGG), GLOBUCEL®; assay: Viscosity of aqueous solutions of Human Gamma Globulin (Cambridge VISCOlab5000 or DV2T cone and plate viscometer); conditions: for Viscosity, cP: HGG 220 mg/mL, excipient 10 mg/mL, 25° C.
# Description: Commercially obtained human gamma globulin (HGG), GLOBUCEL® (50 mg/mL) containing pharmaceutical excipients (Maltose) was dialyzed against water for 24 hr at 4° C. with three changes. To the aqueous solution of HGG, either histidine or phosphate or citrate buffer was added from the stock concentration of 1000 mM for histidine buffer or 1000 mM for citrate buffer or 1000 mM for phosphate buffer, pH 6.0 to get a final concentration of 25 mM each. The HGG solutions in various buffers were concentrated to a final volume of less than 150 μL using Vivaspin centrifugal concentrators (Sartorius). The collected protein sample was stored at 4° C. […] The protein concentrations were experimentally determined using the extinction coefficient of 1.4
# [formula] at 280 nm. The viscosities of the solution were measured either using a Cambridge Viscometer, VISCOlab5000 using 70 μL of sample at 25° C. or using a DV2T cone and plate viscometer using 1.5 mL of sample at 25° C. at extrapolated zero shear rate.
# Commercially obtained human gamma globulin (HGG), GLOBUCEL® (50 mg/mL) containing pharmaceutical excipients (Maltose) was dialyzed against water for 24 hr at 4° C. with three changes. To the aqueous solution of HGG, either citrate-phosphate buffer pH 5.0 or citrate-phosphate buffer pH 6.0 or citrate-phosphate buffer pH 7.0 was added from the stock concentration of 1000 mM for citrate buffer at pH 5.0 or pH 6.0 or pH 7.0 to get a final concentration of 25 mM each. The HGG solutions in various pH buffers were concentrated to a final volume of less than 150 μL using Vivaspin centrifugal concentrators (Sartorius). The collected protein sample was stored at 4° C. […] The protein concentrations were experimentally determined using the extinction coefficient of 1.4
# Commercially obtained human gamma globulin (HGG), GLOBUCEL® (50 mg/mL) containing pharmaceutical excipients (Maltose) was dialyzed against water for 24 hr at 4° C. with three changes. To the aqueous solution of HGG, phosphate/citrate/histidine Buffer was added from the stock concentration of 1000 mM phosphate/citrate/histidine buffer, pH 6.0 to get a final concentration of 25 mM. To the buffered HGG different amino acid or its derivative was added individually and mixed until complete dissolution. The excipient containing HGG was concentrated to a final volume of less than 150 μL using Vivaspin centrifugal concentrators (Sartorius). The collected protein sample was stored at 4° C. […] The protein concentrations were experimentally determined using the extinction coefficient of 1.4
# Commercially obtained human gamma globulin (HGG), GLOBUCEL® (50 mg/mL) containing pharmaceutical excipients (Maltose) was dialyzed against water for 24 hr at 4° C. with three changes. To the aqueous solution of HGG, phosphate/citrate/histidine Buffer was added from the stock concentration of 1000 mM phosphate/citrate/histidine buffer, pH 6.0 to get a final concentration of 25 mM. To the buffered HGG, different nucleosides or nucleotides or its derivative was added individually and mixed until complete dissolution. The excipient containing HGG was concentrated to a final volume of less than 150 μL using Vivaspin centrifugal concentrators (Sartorius). The collected protein sample was stored at 4° C.
# Bevacizumab (AVASTIN®) = assay: Size Exclusion Chromatography of formulated Bevacizumab on storage; format: physicochemical; conditions: storage at 25° C., formulated with tryptophan + nicotinic acid (acid form), SEC
# Description: The collected protein sample was stored at 4° C. […] Reported protein concentrations represent the range of all protein samples in each Table or Figure. Specifically, reported values are the median plus or minus half the range. The protein concentrations were experimentally determined using the extinction coefficient of 1.54
# Etanercept (ENBREL®) = biological target: T1, Etanercept (ENBREL®) (Homo sapiens, UniProt P20333); assay: Viscosity of Etanercept solutions (VISCOlab5000 or DV2T cone and plate viscometer); format: physicochemical; conditions: for Viscosity, cP: 25 mM phosphate buffer pH 6.0, 25° C.
# T1 construct: purchased ENBREL®
# T1 sequence (P20333 with tags, fused parts or gaps limits assumed): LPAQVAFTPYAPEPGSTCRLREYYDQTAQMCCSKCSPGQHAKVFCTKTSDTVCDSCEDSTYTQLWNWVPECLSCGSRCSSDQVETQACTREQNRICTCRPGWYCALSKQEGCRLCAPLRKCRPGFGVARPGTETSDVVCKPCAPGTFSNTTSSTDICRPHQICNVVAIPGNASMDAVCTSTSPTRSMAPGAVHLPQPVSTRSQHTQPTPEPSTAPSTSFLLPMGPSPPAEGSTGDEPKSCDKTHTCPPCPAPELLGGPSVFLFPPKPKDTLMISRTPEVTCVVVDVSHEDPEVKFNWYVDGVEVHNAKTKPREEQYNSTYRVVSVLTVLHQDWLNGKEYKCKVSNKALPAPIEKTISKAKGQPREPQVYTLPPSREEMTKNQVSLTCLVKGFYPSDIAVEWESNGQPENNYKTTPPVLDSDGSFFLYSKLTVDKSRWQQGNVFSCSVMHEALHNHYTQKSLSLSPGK
# Description: Commercially obtained Etanercept, ENBREL®, 25 mg as a lyophilized powder (25 mg Etanercept, 40 mg mannitol, 10 mg sucrose, and 1.2 mg Tromethamine and for reconstitution 0.9% benzyl alcohol in water) was dialyzed against 25 mM phosphate buffer, pH 6.0 for 24 hr at 4° C. with three changes. To the dialysed Etanercept different viscosity-reducing agent(s) was added individually or in combination and mixed until complete dissolution. […] The collected protein sample was stored at 4° C.
# [formula] at 280 nm. […] Results
# Commercially obtained Etanercept, ENBREL®, 25 mg as a lyophilized powder (25 mg Etanercept, 40 mg mannitol, 10 mg sucrose, and 1.2 mg Tromethamine and for reconstitution 0.9% benzyl alcohol in water) was dialyzed against 25 mM phosphate buffer, pH 6.0 for 24 hr at 4° C. with three changes.
# To the dialysed samples of above protein agents, a combination of viscosity-reducing agents nicotinic acid (acid form) and tryptophan were added and mixed until complete dissolution. […] The collected protein samples were stored at 4° C.
# Rituximab (RITUXAN®) [2] = assay: Size Exclusion Chromatography of formulated Rituximab on storage; format: physicochemical; conditions: storage at 25° C., formulated with tryptophan + nicotinic acid (acid form), 250 mg/mL, SEC
# Description: The collected protein sample was stored at 4° C. […] The protein concentrations were experimentally determined using the extinction coefficient of 1.7
# Rituximab (RITUXAN®) [3] = assay: Percent reduction in aggregation of Rituximab by Size Exclusion Chromatography; format: physicochemical; conditions: with nicotinic acid and tryptophan, 250-275 mg/mL, versus control at 0 time point = 100%
# Description: To the buffered antibody solutions, different aggregation reducing-agents were added individually or in combination and mixed until complete dissolution. […] The collected protein sample was stored at 4° C. […] The amount of reduction in aggregation is calculated setting the values at 0 time point equal to 100% in control (without any aggregation-reducing agent) and the reduction in aggregation in test samples (with aggregation-reducing agent) is expressed as percent reduction when compared to control at 0 time point.
molecule,measurement,setting,value
Cc1ncc(C[n+]2csc(CCO)c2C)c(N)n1 [Thiamine-HCl],Viscosity (cP) @ 25° C.,"[1]; HGG 179 mg/mL, excipient 10 mg/mL (30 mM), 25 mM phosphate buffer pH 6.0",24 cP
same,Viscosity (cP) @ 25° C.,"[1]; HGG 200 mg/mL, excipient 10 mg/mL (30 mM), 25 mM histidine buffer pH 6.0",29 cP
same,Viscosity (cP) @ 25° C.,"[1]; HGG 200 mg/mL, excipient 27.3 mg/mL (81 mM), 25 mM phosphate buffer pH 6.0",34 cP
same,"Viscosity, cP",[1]; histidine buffer pH 6.0,95 cP
same,"Viscosity, cP",[1]; phosphate buffer pH 6.0,65 cP
same,Viscosity (cP) @ 25° C.,"[1]; HGG 246 mg/mL, excipient 27.3 mg/mL (81 mM), 25 mM phosphate buffer pH 6.0",91 cP
same,Viscosity (cP) @ 25° C.,"[1]; HGG 248 mg/mL, excipient 10 mg/mL (30 mM), 25 mM phosphate buffer pH 6.0",92 cP
same,Viscosity (cP) @ 25° C.,"[1]; HGG 294 mg/mL, excipient 10 mg/mL (30 mM), 25 mM citrate buffer pH 6.0",185 cP
Cc1cn([C@H]2C[C@H](O)[C@@H](CO)O2)c(=O)[nH]c1=O [Thymidine],Viscosity (cP) @ 25° C.,"[1]; HGG 161 mg/mL, excipient 10 mg/mL (41 mM), 25 mM phosphate buffer pH 6.0",60 cP
OC[C@H]1O[C@H](O[C@H]2O[C@H](CO)[C@@H](O)[C@H](O)[C@H]2O)[C@H](O)[C@@H](O)[C@@H]1O [Trehalose dihydrate],Viscosity (cP) @ 25° C.,"[1]; HGG 217 mg/mL, excipient 20 mg/mL (53 mM), 25 mM citrate buffer pH 6.0",87 cP
same,Viscosity (cP) @ 25° C.,"[1]; HGG 246 mg/mL, excipient 20 mg/mL (53 mM), 25 mM phosphate buffer pH 6.0",54 cP
N[C@@H](Cc1c[nH]c2ccccc12)C(=O)O [Tryptophan],Viscosity (cP) @ 25° C.,"[1]; HGG 200 mg/mL, excipient 6 mg/mL (29 mM), 25 mM phosphate buffer pH 6.0",14 cP
same,Viscosity (cP) @ 25° C.,"[1]; HGG 231 mg/mL, excipient 6 mg/mL (29 mM), 25 mM citrate buffer pH 6.0",60 cP
same,Viscosity (cP) @ 25° C.,"[1]; HGG 243 mg/mL, excipient 6 mg/mL (29 mM), 25 mM phosphate buffer pH 6.0",35 cP
same,Viscosity (cP) @ 25° C.,"[1]; HGG 256 mg/mL, excipient 6 mg/mL (29 mM), 25 mM histidine buffer pH 6.0",18 cP
Cl.NCCc1ccc(O)cc1 [Tyramine-HCl],Viscosity (cP) @ 25° C.,"[1]; HGG 215 mg/mL, excipient 10 mg/mL (58 mM), 25 mM phosphate buffer pH 6.0",145 cP
O=c1cc[nH]c(=O)[nH]1 [Uracil],Viscosity (cP) @ 25° C.,"[1]; HGG 235 mg/mL, excipient 1 mg/mL (9 mM), 25 mM phosphate buffer pH 6.0",140 cP
O=c1ccn([C@@H]2O[C@H](CO)[C@@H](O)[C@H]2O)c(=O)[nH]1 [Uridine],Viscosity (cP) @ 25° C.,"[1]; HGG 203 mg/mL, excipient 10 mg/mL (41 mM), 25 mM phosphate buffer pH 6.0",28 cP
"Bevacizumab: Commercially obtained Bevacizumab, AVASTIN®, dialyzed against 25 mM phosphate buffer, pH 6.0",Degradation peak area (%),Bevacizumab (AVASTIN®); 0 day,Nil
same,Standard peak area (%),Bevacizumab (AVASTIN®); 0 day,99.39%
same,Degradation peak area (%),Bevacizumab (AVASTIN®); 7 days,Nil
same,Standard peak area (%),Bevacizumab (AVASTIN®); 7 days,99.118%
Etanercept,"Viscosity, cP","Etanercept (ENBREL®); Etanercept 50 mg/mL, with 10 mg/mL nicotinic acid (acid form) + 6 mg/mL tryptophan",2 cP
same,"Viscosity, cP","Etanercept (ENBREL®); Etanercept 50 mg/mL, without excipient",35 cP
same,"Viscosity, cP","Etanercept (ENBREL®); Etanercept 100 mg/mL, with 10 mg/mL nicotinic acid (acid form) + 6 mg/mL tryptophan",3 cP
same,"Viscosity, cP","Etanercept (ENBREL®); Etanercept 100 mg/mL, without excipient",72 cP
same,"Viscosity, cP","Etanercept (ENBREL®); Etanercept 150 mg/mL, with 10 mg/mL nicotinic acid (acid form) + 6 mg/mL tryptophan",11 cP
same,"Viscosity, cP","Etanercept (ENBREL®); Etanercept 150 mg/mL, without excipient",135 cP
same,"Viscosity, cP","Etanercept (ENBREL®); Etanercept 175 mg/mL, with 10 mg/mL nicotinic acid (acid form) + 6 mg/mL tryptophan",17 cP
same,"Viscosity, cP","Etanercept (ENBREL®); Etanercept 175 mg/mL, without excipient",160 cP
same,"Viscosity, cP","Etanercept (ENBREL®); Etanercept 200 mg/mL, with 10 mg/mL nicotinic acid (acid form) + 6 mg/mL tryptophan",23 cP
same,"Viscosity, cP","Etanercept (ENBREL®); Etanercept 200 mg/mL, without excipient",230 cP
same,"Viscosity, cP","Etanercept (ENBREL®); Etanercept 225 mg/mL, with 10 mg/mL nicotinic acid (acid form) + 6 mg/mL tryptophan",40 cP
same,"Viscosity, cP","Etanercept (ENBREL®); Etanercept 225 mg/mL, without excipient",345 cP
same,"Viscosity, cP","Etanercept (ENBREL®); Etanercept 250 mg/mL, with 10 mg/mL nicotinic acid (acid form) + 6 mg/mL tryptophan",65 cP
same,"Viscosity, cP","Etanercept (ENBREL®); Etanercept 250 mg/mL, without excipient",439 cP
same,"Viscosity, cP","Etanercept (ENBREL®); Etanercept 275 mg/mL, with 10 mg/mL nicotinic acid (acid form) + 6 mg/mL tryptophan",77 cP
same,"Viscosity, cP","Etanercept (ENBREL®); Etanercept 275 mg/mL, without excipient",1130 cP
same,"Viscosity, cP","Etanercept (ENBREL®); Etanercept 300 mg/mL, with 10 mg/mL nicotinic acid (acid form) + 6 mg/mL tryptophan",139 cP
same,magnitude of viscosity-reducing effects,"Etanercept (ENBREL®); Etanercept 275±10 mg/mL, nicotinic acid (acid form) and tryptophan added to phosphate buffer",14.6 fold
L-Pantothenic Acid hemicalcium salt,Viscosity (cP) @ 25° C.,"[1]; HGG 182 mg/mL, excipient 10 mg/mL (42 mM), 25 mM phosphate buffer pH 6.0",14 cP
Polysorbate 80,Viscosity (cP) @ 25° C.,"[1]; HGG 228 mg/mL, excipient 0.07%, 25 mM citrate buffer pH 6.0",78 cP
same,Viscosity (cP) @ 25° C.,"[1]; HGG 241 mg/mL, excipient 0.07%, 25 mM phosphate buffer pH 6.0",84 cP
"Rituximab: Commercially obtained Rituximab, RITUXAN®, dialyzed against 25 mM phosphate buffer, pH 6.0",Aggregation peak area (%),Rituximab (RITUXAN®) [2]; 0 day,1.027%
same,Degradation peak area (%),Rituximab (RITUXAN®) [2]; 0 day,Nil
same,Aggregation peak area (%),Rituximab (RITUXAN®) [2]; 7 days,0.96%
same,Degradation peak area (%),Rituximab (RITUXAN®) [2]; 7 days,Nil
same,Percent reduction in aggregation,Rituximab (RITUXAN®) [3]; After 24 hours,90%
same,Percent reduction in aggregation,Rituximab (RITUXAN®) [3]; After 48 hours,100%
